The values below come from patent US20240166739A1 (KISOJI BIOTECHNOLOGY, published 2024).

Assay [1] concerns the target T1, recombinant human PD-1 protein (human, UniProt Q15116 25-167).
T1 construct: Bought protein; also called human recombinant PD1 protein; PD-1 recombinant protein
Briefly: ELISA on coated recombinant PD-1, anti-human-Fc-HRP detection. The protocol: (§1) The binding of binding agents comprising anti-PD-1 and -CD47 antigen binding domain to recombinant human or cynomolgous PD-1 (Cedarlane, Cat. No. HPLC-10377-H08H-100) or recombinant human or cynomolgous CD47 (Cedarlane, Cat. No. 12283-H08H-200 and 90869-C08H) was assessed by ELISA (FIG. 9A, FIG. 9B, FIG. 9C, FIG. 9D, FIG. 22, FIG. 23). […] The monoclonal anti-CD47 antibody (clone B6H12) was used as a positive control in CD47 binding assays (Biolegend, Cat. No. 401401).
(§2) Briefly, recombinant proteins were coated on 96-well plates. Plates were covered and left at 4° C. overnight. The next day, plates were washed once with PBS and blocked with blocking buffer for 1 hour at room temperature. Binding agents were tested at the indicated concentration, diluted in the blocking buffer, and incubated for 1 hour at 37° C. After incubation, plates were washed three times with washing buffer. Plates were incubated with anti-human-Fc-HRP (Sigma-Aldrich, Cat. No. APi 13P) diluted at 1:5000 for 1 hour at room temperature, then washed three times with PBS-T washing buffer. The signal was developed with SuperSignal™ ELISA Pico Chemiluminescent Substrate (Thermofisher, Cat. No. 37069). The plates were read on a SpectraMax™ i3x Multi-Mode Microplate Reader (Molecular Devices).

Assay [2] addresses T1, recombinant human PD-1 protein. Briefly: ELISA on coated recombinant PD-1 (FIG. 9A). The protocol: as §1, §2
The target of assay [3] is T2, human PD-1 on CHO-PD1 cells (human, UniProt Q15116 25-288).
T2 construct: whole, on cells; also called CHO-PD-1 cell line
T2 sequence (Q15116 25-288): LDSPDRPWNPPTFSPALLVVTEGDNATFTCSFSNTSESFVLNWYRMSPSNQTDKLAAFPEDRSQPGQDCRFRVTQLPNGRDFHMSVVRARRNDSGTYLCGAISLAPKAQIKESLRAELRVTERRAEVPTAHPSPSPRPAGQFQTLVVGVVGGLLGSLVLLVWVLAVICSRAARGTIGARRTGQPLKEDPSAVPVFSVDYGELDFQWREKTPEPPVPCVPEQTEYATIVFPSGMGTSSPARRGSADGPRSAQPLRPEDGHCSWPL
Briefly: Flow cytometry, 20 µg/mL, CHO-PD1 against CHO parental cells (FIG. 10).
Protocol: The binding of binding agents to cells was assessed by flow cytometry. […] Binding agents comprising anti-PD-1 antigen binding domain, were diluted in FACS staining buffer to 20 μg/mL and added and incubated with cells for 30 minutes on ice. The PD-1 antibody (clone EH12.2H7, Biolegend) was used as a positive control.

T1 sequence (Q15116 25-167 limits assumed): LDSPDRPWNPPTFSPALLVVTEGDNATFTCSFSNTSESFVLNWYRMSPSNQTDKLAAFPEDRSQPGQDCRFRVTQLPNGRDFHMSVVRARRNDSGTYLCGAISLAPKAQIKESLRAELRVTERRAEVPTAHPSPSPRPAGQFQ

B1: KC035 (HEWL; HEWL; HEWL negative control binding agent) (Fc fusion)
chain: QVQLVESGGGSVQAGGSLRLSCAASGSTDSIEYMTWFRQAPGKAREGVAALYTHTGNTYYTDSVKGRFTISQDKAKNMAYLRMDSVKSEDTAIYTCGATRKYVPVRFALDQSSYDYWGQGTQVTVSSEPKSCDKTHTCPPCPAPELLGGPSVFLFPPKPKDTLMISRTPEVTCVVVDVSHEDPEVKFNWYVDGVEVHNAKTKPREEQYNSTYRVVSVLTVLHQDWLNGKEYKCKVSNKALPAPIEKTISKAKGQPREPQVYTLPPSREQMTKNQVSLTCLVKGFYPSDIAVEWESNGQPENNYKTTPPVLNSDGSFFLYSKLTVDKSRWQQGNVFSCSVMHEALHNHYTQESLSLSPGKAPAPAPAPAPKAQVQLVESGGGSVQAGGSLRLSCAASGSTDSIEYMTWFRQAPGKAREGVAALYTHTGNTYYTDSVKGRFTISQDKAKNMAYLRMDSVKSEDTAIYTCGATRKYVPVRFALDQSSYDYWGQGTQVTVSSGGGGSGGGGSGGGGSQVQLVESGGGSVQAGGSLRLSCAASGSTDSIEYMTWFRQAPGKAREGVAALYTHTGNTYYTDSVKGRFTISQDKAKNMAYLRMDSVKSEDTAIYTCGATRKYVPVRFALDQSSYDYWGQGTQVTVSS
notes: Three anti-HEWL VHHs in the VHH-Fc-VHH-VHH format; negative control for KC036
As for B1, in assay [1], the binding result is “no binding”.

B2: KC036 (PD-1-specific binding agent; HEWL; PD1; HEWL) (Fc fusion)
chain: QVQLVESGGGSVQAGGSLRLSCAASGSTDSIEYMTWFRQAPGKAREGVAALYTHTGNTYYTDSVKGRFTISQDKAKNMAYLRMDSVKSEDTAIYTCGATRKYVPVRFALDQSSYDYWGQGTQVTVSSEPKSCDKTHTCPPCPAPELLGGPSVFLFPPKPKDTLMISRTPEVTCVVVDVSHEDPEVKFNWYVDGVEVHNAKTKPREEQYNSTYRVVSVLTVLHQDWLNGKEYKCKVSNKALPAPIEKTISKAKGQPREPQVYTLPPSREQMTKNQVSLTCLVKGFYPSDIAVEWESNGQPENNYKTTPPVLNSDGSFFLYSKLTVDKSRWQQGNVFSCSVMHEALHNHYTQESLSLSPGKAPAPAPAPAPKAQVQLQESGGGWVQPGGSLRLSCVASGFTFSRSSMSWHRQAPGKERDLVAIISSSGIITHYSDSVKGRFTISRDNAKDTVYLQMNSLKPEDTAVYVCNAVLDDDSGDYWGQGTQVTVSSGGGGSGGGGSGGGGSQVQLVESGGGSVQAGGSLRLSCAASGSTDSIEYMTWFRQAPGKAREGVAALYTHTGNTYYTDSVKGRFTISQDKAKNMAYLRMDSVKSEDTAIYTCGATRKYVPVRFALDQSSYDYWGQGTQVTVSS
notes: Anti-HEWL VHH - IgG1 hinge-CH2-mutated CH3 - rigid linker - KC009 anti-PD-1 VHH - (G4S)3 - anti-HEWL VHH; expressed as dimer; may comprise a His-tag or not
Consider B2, for which the binding result in assay [2] and in assay [3] was “binds” in each case.
